Measured values taken from KR20150077749A (dated 2015).

What was measured:
[1] = target: T1, GRS expressed natively in human cells (HeLa cell lysate) (human, UniProt P41250 55-739, limits assumed); experiment: western blot
T1 construct: Target of the western blot; also called human 세포에서 원래 발현된 GRS
T1 sequence (looked up): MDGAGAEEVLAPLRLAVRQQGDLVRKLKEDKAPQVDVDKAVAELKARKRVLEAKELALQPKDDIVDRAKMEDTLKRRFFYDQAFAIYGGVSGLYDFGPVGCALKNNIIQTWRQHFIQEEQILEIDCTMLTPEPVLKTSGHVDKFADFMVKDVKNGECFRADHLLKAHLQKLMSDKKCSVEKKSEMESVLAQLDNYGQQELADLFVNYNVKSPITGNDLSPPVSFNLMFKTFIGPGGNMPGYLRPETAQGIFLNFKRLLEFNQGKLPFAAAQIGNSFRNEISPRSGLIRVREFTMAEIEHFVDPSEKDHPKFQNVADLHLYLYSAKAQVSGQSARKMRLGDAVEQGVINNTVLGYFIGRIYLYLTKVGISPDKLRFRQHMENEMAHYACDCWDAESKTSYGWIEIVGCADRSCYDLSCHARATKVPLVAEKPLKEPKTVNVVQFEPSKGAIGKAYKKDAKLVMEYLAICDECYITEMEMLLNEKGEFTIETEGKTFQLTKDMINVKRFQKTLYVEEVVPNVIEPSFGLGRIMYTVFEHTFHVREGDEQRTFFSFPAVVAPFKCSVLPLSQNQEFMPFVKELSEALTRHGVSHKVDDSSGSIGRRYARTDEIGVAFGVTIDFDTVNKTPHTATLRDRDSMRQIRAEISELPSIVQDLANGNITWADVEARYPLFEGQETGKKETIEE

[2] = target: T2, WRS (Tryptophanyl-tRNA synthetase), purified recombinant antigen (UniProt P23381 1-471, limits assumed); experiment: Luminex multiplex bead assay, antigen coupled to beads, anti-HA-biotin / SA-PE detection
T2 construct: also called 트립토파닐-tRNA 합성효소
T2 sequence (looked up): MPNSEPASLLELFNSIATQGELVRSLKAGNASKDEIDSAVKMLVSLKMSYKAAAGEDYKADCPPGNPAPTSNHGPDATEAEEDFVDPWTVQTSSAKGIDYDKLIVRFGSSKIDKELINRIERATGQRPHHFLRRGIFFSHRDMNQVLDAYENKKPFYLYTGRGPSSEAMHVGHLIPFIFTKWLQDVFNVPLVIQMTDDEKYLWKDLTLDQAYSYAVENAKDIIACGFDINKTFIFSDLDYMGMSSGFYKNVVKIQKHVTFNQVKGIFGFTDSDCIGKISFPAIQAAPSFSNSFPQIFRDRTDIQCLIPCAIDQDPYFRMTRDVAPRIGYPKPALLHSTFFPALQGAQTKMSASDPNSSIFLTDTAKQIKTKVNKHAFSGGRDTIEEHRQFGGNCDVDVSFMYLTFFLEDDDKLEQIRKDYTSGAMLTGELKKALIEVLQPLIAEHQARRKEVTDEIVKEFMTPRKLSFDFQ

[3] = target: T3, SRS (Seryl-tRNA synthetase), purified recombinant antigen (UniProt P49591 1-514, limits assumed); experiment: as above
T3 construct: also called 세릴-tRNA 합성효소

[4] = target: T4, KRS (Lysyl-tRNA synthetase), purified recombinant antigen (UniProt Q15046 1-597, limits assumed); experiment: as above
T4 construct: also called 리실-tRNA 합성효소

[5] = target: T5, YRS (Tyrosyl-tRNA synthetase), purified recombinant antigen (UniProt P54577 1-528, limits assumed); experiment: as above
T5 construct: also called 타이로실-tRNA 합성효소
T5 sequence (looked up): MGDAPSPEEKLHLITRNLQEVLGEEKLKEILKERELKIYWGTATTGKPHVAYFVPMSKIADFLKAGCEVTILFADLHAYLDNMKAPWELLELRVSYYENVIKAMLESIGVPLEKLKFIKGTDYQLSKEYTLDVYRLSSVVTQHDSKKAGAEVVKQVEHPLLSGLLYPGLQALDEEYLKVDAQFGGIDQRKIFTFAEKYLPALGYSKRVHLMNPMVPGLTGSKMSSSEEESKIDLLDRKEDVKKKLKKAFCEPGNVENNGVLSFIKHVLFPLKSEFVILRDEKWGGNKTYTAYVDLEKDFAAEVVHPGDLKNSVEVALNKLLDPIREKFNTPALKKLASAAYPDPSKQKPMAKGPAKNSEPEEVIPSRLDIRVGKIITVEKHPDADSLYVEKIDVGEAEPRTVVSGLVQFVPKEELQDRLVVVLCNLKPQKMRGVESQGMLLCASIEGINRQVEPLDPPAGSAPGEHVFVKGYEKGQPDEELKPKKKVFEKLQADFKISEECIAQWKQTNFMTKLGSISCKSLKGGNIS

[6] = target: T6, NRS (Asparaginyl-tRNA synthetase), purified recombinant antigen (UniProt O43776 1-548, limits assumed); experiment: as above
T6 construct: also called 아스파라기닐딜-tRNA 합성효소
T6 sequence (looked up): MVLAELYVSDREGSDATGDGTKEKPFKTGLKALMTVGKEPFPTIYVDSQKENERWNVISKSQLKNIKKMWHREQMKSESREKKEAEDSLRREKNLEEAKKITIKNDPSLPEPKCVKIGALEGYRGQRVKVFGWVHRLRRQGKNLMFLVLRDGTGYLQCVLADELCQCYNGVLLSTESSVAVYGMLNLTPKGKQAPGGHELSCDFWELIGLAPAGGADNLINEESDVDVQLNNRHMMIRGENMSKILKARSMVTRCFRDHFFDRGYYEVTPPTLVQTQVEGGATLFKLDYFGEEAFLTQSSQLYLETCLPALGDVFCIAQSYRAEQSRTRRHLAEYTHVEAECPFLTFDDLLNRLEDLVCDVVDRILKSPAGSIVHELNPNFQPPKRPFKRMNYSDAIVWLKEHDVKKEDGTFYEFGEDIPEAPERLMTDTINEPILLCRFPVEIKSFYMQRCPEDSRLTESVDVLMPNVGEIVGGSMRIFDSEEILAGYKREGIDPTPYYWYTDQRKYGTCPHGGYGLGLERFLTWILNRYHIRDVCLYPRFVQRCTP

[7] = target: T7, AIMP1 (Aminoacyl-tRNA-synthetase-interacting multifunctional protein 1), purified recombinant antigen (UniProt Q12904 1-312, limits assumed); experiment: as above
T7 construct: also called AIMP1(p43); p43
T7 sequence (looked up): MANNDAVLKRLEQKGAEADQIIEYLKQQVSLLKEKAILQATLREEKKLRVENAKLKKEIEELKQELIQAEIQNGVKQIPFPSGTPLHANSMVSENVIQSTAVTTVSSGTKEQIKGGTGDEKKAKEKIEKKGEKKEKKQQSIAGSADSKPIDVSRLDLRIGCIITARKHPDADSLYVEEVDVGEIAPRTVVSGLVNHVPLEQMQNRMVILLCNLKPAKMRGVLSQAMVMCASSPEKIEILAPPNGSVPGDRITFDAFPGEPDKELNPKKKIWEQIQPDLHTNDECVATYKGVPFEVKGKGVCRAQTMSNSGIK

[8] = target: T8, HRS (Histidyl-tRNA synthetase), purified recombinant antigen (UniProt P12081 1-509, limits assumed); experiment: as above
T8 construct: also called 히스티딜-tRNA 합성효소
T8 sequence (looked up): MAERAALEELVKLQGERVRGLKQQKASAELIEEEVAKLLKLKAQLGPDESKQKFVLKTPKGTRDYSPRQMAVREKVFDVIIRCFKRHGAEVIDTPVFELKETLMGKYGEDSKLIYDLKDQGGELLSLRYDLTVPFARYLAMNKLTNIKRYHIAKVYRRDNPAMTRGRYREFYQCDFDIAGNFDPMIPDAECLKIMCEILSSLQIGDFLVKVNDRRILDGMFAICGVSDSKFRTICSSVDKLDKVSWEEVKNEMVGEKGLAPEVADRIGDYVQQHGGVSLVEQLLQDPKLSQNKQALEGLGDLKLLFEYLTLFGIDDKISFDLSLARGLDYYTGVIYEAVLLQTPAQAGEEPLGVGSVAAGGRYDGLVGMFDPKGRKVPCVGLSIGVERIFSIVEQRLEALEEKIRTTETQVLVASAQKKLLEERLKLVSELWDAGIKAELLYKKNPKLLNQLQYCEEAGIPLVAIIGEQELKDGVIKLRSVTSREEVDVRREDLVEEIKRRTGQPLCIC

T4 sequence (Q15046 whole entry): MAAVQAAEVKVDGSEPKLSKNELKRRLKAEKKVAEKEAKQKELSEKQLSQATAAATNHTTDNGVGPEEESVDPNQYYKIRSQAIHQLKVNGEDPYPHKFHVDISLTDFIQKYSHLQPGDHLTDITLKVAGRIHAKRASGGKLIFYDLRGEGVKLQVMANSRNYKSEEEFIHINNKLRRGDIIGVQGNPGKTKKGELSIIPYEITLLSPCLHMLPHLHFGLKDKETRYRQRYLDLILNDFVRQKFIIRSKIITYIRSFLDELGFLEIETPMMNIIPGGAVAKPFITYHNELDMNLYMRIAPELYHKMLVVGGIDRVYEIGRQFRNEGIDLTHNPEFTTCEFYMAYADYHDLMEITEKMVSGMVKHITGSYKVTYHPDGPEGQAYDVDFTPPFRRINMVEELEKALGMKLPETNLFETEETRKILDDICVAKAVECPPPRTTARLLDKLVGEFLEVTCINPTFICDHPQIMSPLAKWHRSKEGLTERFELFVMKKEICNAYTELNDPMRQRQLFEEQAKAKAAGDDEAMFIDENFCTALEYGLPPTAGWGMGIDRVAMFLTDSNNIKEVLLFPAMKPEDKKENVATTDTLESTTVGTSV
T3 sequence (P49591 whole entry): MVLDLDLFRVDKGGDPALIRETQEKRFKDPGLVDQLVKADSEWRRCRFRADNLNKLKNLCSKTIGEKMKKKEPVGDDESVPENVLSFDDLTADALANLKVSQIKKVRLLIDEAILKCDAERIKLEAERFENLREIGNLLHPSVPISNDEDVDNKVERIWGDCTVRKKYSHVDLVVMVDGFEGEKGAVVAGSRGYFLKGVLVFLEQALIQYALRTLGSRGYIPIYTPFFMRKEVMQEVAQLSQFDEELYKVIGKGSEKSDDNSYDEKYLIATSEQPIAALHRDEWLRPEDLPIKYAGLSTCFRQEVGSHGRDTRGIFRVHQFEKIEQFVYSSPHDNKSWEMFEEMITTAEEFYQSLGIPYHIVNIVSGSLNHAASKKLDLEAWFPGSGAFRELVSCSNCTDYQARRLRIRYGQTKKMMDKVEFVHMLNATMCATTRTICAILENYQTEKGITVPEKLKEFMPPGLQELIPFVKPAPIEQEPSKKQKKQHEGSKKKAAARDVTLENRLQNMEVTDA

Binder	binding result [1]	binding result [2]	binding result [3]	binding result [4]	binding result [5]	binding result [6]	binding result [7]	binding result [8]
anti-GRS scFv, SEQ ID NO 27 (antibody ii) (scFv, One of the three scFvs selected by phage display, expressed from pComb3X in the E. coli periplasm; His and HA tags were used for purification and detection; also called 본 발명의 항체; 항 GRS scFv 항체) scFv: EVQLLESGGGLVQPGGSLRLSCAASGFTFSGYDMSWVRQAPGKGLEWVSAIYSDSGSTYYADSVKGRFTISRDNSKNTLYLQMNSLRAEDTAVYYCARNTALFDYWGQGTLVTVSSGGGGSGGGGSGGGGSQSVLTQPPSASGTPGQRVTISCSGSSSNIGSNYVTWYQQLPGTAPKLLIYANNHRPSGVPDRFSGSKSGTSASLAISGLRSEDEADYYCGAWDASLSGYVFGGGTKLTVL	binds	no binding	no binding	no binding	no binding	no binding	no binding	no binding
anti-GRS scFv, SEQ ID NO 41 (antibody iii) (scFv, One of the three scFvs selected by phage display, expressed from pComb3X in the E. coli periplasm; His and HA tags were used for purification and detection; also called 본 발명의 항체; 항 GRS scFv 항체) scFv: EVQLLESGGGLVQPGGSLRLSCAASGFTFSNYDMSWVRQAPGKGLEWVSWIYSNGSSTYYADSVKGRFTISRDNSKNTLYLQMNSLRAEDTAVYYCARITCMFDYWGQGTLVTVSSGGGGSGGGGSGGGGSQSVLTQPPSASGTPGQRVTISCSGSSSNIGSNYVTWYQQLPGTAPKLLIYADSHRPSGVPDRFSGSKSGTSASLAISGLRSEDEADYYCGSWDYSLNGYVFGGGTKLTVL	binds	no binding	no binding	no binding	no binding	no binding	no binding	no binding
anti-GRS scFv, SEQ ID NO 13 (antibody i) (scFv, One of the three scFvs selected by phage display (human VH3-23/VL1g framework), expressed from pComb3X in the E. coli periplasm; It was purified on Ni-NTA and detected with anti-HA, so it carries His and HA tags; Every result written here is told alike for all three scFvs; also called 본 발명의 항체; 항 GRS scFv 항체) scFv: EVQLLESGGGLVQPGGSLRLSCAASGFTFSDYDMSWVRQAPGKGLEWVSAISPDDGSKYYADSVKGRFTISRDNSKNTLYLQMNSLRAEDTAVYYCARTTWLFDYWGQGTLVTVSSGGGGSGGGGSGGGGSQSVLTQPPSASGTPGQRVTISCTGSSSNIGNNYVNWYQQLPGTAPKLLIYADSHRPSGVPDRFSGSKSGTSASLAISGLRSEDEADYYCGAWDSSLSGYVFGGGTKLTVL		no binding	no binding	no binding	no binding	no binding	no binding	no binding
